Values of other authors in publication PMC10303925.
pKd: −log10 of the molar value.

Key:
MLPH (Homo sapiens) = MLPH (Homo sapiens) (UniProt Q9BV36)
SLP2-A (Homo sapiens) = SLP2-A (Homo sapiens) (UniProt Q9HCH5)
Sequence of UniProt Q9HCH5 (Q9HCH5 whole entry): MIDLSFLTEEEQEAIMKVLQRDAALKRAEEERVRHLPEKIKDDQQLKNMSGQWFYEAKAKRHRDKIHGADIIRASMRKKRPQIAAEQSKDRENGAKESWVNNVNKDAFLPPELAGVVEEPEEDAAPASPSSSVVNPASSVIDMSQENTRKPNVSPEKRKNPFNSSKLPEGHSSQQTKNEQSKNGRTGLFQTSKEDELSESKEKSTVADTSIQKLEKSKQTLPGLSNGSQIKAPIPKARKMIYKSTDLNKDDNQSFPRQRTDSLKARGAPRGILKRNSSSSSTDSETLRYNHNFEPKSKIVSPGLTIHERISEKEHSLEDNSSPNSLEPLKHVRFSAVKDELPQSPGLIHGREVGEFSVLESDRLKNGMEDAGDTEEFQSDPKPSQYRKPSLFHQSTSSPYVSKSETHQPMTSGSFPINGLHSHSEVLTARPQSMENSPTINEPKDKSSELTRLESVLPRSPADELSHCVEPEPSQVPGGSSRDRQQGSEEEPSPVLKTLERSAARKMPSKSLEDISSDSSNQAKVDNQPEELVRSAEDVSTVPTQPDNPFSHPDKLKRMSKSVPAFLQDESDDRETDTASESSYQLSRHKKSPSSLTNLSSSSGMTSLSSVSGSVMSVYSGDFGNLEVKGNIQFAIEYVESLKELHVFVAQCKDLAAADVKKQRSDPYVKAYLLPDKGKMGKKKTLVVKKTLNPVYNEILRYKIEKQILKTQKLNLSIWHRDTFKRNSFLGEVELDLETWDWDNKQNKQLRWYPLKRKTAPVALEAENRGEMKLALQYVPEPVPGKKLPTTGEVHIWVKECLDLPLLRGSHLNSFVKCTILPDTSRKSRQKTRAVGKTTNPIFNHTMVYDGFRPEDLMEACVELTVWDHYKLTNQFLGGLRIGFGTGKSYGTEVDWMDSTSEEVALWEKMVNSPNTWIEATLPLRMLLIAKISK

Sequence of UniProt Q9BV36 (Q9BV36 whole entry): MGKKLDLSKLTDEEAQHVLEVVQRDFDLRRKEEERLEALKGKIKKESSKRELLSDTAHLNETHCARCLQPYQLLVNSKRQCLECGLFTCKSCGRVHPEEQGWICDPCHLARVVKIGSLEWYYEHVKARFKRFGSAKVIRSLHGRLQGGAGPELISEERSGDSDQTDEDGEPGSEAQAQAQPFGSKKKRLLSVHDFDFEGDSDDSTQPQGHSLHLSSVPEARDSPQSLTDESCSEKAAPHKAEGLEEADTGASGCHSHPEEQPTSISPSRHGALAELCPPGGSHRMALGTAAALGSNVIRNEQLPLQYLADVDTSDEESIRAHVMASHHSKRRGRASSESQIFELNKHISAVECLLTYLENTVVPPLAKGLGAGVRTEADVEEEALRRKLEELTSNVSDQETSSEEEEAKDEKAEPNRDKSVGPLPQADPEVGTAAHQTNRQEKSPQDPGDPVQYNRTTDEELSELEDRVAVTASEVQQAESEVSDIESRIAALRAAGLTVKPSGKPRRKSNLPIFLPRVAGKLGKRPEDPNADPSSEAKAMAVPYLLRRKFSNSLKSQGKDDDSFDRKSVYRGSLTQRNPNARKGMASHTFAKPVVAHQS

## RAB27A (from UniProt P51159)
MLPH (Homo sapiens)
  pKd: 6.70
SLP2-A (Homo sapiens)
  pKd: 7.70
